This passage reports stoichiometry N results from paper PMC2719252.

This test deals with hexa-His-β6 bundlin (soluble, recombinant WT β6 bundlin) (enteropathogenic Escherichia coli (EPEC) strain RN587/1). The test is described as follows: native MS.

A word on the stoichiometry N: it is the number of molecules, sites or subunits per partner or assembly. “hexa-His-β6 bundlin (soluble, recombinant WT β6 bundlin) (natural protein)”: the stoichiometry N turned out to be 2.
